These results are taken from patent US20240270874A1.

Assay in all cases: cell-based or functional assay
For test [1], the target named is human KLB & human FGFR3c on L6 cells (human) (UniProt Q86Z14).
The target in test [2] is human KLB & human FGFR4 on L6 cells (human) (UniProt Q86Z14).
The target of test [3] is human FGFR1c on cells (human) (UniProt P11362).
Test [4] concerns the target human KLB&FGFR1c complex on cells (human) (UniProt Q86Z14).

human KLB&FGFR1c complex on cells (human), sequence (Q86Z14 whole entry, chain 1 of 2): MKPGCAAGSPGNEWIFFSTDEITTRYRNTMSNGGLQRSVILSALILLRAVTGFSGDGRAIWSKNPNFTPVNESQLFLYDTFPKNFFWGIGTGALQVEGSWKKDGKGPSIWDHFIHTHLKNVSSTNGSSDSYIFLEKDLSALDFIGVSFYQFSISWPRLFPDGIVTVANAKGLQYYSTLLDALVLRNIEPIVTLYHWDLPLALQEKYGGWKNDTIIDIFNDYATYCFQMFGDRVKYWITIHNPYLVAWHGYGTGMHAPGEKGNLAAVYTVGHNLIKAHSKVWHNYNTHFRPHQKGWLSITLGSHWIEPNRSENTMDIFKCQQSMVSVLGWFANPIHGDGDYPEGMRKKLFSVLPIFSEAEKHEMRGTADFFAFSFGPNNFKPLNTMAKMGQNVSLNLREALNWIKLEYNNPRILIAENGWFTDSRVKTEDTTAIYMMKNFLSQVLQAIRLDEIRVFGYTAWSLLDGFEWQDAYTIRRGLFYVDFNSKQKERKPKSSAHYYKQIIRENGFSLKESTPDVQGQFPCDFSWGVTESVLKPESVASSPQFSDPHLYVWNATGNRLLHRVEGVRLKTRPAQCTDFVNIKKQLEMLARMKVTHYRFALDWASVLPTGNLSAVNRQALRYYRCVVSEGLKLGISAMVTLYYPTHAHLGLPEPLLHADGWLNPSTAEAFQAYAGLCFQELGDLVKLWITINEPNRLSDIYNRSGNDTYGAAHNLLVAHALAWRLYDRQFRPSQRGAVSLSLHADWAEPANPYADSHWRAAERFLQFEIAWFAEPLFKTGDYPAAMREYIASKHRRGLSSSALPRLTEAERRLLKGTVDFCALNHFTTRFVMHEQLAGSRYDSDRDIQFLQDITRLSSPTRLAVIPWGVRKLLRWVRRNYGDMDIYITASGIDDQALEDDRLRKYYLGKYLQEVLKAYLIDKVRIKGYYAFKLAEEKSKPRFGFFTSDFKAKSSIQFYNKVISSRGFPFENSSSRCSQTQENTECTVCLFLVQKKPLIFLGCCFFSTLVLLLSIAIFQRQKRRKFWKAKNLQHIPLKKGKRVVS
human KLB&FGFR1c complex on cells (human), sequence (P11362 22-822, chain 2 of 2, further chain): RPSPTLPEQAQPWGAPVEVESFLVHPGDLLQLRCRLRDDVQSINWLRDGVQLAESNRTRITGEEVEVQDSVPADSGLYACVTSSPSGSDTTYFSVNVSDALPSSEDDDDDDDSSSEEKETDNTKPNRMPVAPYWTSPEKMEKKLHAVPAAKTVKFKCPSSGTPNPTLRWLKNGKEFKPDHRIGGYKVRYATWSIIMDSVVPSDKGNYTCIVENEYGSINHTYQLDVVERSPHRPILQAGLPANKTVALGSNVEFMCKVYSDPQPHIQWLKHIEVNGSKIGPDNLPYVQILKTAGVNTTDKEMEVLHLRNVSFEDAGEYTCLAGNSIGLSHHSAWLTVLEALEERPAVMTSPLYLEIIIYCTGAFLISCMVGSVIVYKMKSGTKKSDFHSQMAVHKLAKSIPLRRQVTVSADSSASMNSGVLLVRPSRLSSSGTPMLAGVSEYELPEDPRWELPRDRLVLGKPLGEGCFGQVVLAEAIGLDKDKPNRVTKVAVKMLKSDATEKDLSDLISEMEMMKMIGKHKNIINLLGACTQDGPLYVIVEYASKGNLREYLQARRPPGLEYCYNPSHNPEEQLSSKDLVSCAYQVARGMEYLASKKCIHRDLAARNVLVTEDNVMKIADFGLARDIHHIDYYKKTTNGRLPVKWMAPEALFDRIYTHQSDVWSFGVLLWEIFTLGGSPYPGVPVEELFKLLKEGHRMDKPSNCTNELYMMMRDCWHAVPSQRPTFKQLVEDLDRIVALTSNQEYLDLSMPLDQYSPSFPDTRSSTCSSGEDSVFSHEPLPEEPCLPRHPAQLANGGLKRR
human FGFR1c on cells (human), sequence (P11362 22-822): as the sequence (P11362 22-822, chain 2 of 2, further chain) above
human KLB & human FGFR4 on L6 cells (human), sequence (Q86Z14 whole entry, chain 1 of 2): as the sequence (Q86Z14 whole entry, chain 1 of 2) above
human KLB & human FGFR4 on L6 cells (human), sequence (P22455 22-802, chain 2 of 2, further chain): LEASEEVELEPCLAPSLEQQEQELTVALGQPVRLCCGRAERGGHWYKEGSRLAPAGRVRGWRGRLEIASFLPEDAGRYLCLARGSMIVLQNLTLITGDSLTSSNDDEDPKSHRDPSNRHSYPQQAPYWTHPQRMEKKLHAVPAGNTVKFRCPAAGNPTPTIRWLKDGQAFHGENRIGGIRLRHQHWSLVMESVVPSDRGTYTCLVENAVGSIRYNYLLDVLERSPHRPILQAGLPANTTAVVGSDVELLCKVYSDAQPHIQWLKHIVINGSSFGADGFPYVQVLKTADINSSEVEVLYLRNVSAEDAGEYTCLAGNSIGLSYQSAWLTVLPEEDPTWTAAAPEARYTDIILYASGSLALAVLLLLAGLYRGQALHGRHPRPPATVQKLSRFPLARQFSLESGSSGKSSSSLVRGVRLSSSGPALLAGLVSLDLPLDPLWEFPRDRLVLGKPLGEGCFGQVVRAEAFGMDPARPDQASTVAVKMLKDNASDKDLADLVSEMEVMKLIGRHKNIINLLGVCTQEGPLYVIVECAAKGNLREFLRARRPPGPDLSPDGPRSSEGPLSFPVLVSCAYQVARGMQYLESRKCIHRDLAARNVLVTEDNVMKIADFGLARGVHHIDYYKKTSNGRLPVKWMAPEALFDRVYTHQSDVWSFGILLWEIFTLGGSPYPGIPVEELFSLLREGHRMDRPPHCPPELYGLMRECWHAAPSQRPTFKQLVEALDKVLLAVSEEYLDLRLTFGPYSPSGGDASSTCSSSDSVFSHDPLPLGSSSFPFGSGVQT
human KLB & human FGFR3c on L6 cells (human), sequence (Q86Z14 whole entry, chain 1 of 2): as the sequence (Q86Z14 whole entry, chain 1 of 2) above
human KLB & human FGFR3c on L6 cells (human), sequence (P22607 23-806, chain 2 of 2, further chain): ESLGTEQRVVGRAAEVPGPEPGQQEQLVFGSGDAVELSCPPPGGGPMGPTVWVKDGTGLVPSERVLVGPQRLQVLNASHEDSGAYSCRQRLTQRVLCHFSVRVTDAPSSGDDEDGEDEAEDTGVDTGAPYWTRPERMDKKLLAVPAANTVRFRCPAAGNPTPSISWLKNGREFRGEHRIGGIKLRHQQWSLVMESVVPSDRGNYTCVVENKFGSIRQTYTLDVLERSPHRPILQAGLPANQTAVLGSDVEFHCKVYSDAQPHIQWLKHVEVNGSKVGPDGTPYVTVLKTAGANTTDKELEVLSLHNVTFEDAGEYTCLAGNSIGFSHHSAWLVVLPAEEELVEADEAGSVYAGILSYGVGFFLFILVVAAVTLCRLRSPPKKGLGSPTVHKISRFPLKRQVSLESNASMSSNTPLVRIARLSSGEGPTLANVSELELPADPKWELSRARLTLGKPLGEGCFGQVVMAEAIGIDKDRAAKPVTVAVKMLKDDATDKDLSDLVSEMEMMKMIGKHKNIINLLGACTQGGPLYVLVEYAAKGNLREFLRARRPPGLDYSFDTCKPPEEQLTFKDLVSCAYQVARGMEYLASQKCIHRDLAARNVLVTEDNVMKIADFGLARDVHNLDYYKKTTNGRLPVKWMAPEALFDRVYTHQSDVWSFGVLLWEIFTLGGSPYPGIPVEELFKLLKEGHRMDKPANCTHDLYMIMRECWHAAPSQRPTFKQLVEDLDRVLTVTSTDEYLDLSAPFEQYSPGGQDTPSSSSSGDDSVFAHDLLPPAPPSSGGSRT

For the substance AKR001 (ligand), the Activation fold, pERK/total ERK in L6-hKLB&hFGFR3c cells in test [1] came out at 10.2 fold. In test [2], this substance showed an Activation fold, pERK/total ERK in L6-hKLB&hFGFR4 cells of 2.11 fold.
As for “FGF2 (Sino Biological, 10014-HNAE) (from UniProt P09038 143-288) (ligand)”, the Activation fold, SRE-Luc2P reporter in HEK293-hFGFR1c cells in test [3] is 11.6 fold.
Take MK3655 (antibody): in test [4], the Activation fold, GAL4-Elk1 luciferase reporter in CHOK1-hKLB&hFGFR1c cells amounted to 5.62 fold; the Activation fold, SRE-Luc2P reporter in HEK293T-hKLB&hFGFR1c cells was determined as 1.65 fold; the EC50 (nM), GAL4-Elk1 luciferase reporter in CHOK1-hKLB&hFGFR1c cells came out at 0.64 nM; the EC50 (nM), SRE-Luc2P reporter in HEK293T-hKLB&hFGFR1c cells was found to be 5.06 nM.
